In article PMC13354579 (EMBO Reports, 2026):

Target: T1, RAD23A^UBL (human, UniProt P54725 1-84)
T1 construct: RAD23A, human, N-terminal ubiquitin-like domain, residues 1-84; The limits 1-84 are stated for the crystallised construct; also called UBL domain of RAD23A; RAD23A (1–84); source: E. coli (Rosetta2(DE3) for crystallisation), purified via GST tag and SEC
T1 sequence (looked up): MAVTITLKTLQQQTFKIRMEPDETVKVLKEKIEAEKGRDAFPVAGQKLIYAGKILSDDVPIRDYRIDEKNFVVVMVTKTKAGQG
Test: ITC; MicroCal PEAQ-ITC, 25 °C, 50 mM Tris-HCl pH 7.5, 150 mM NaCl, 250 µM TCEP; DUB in the syringe titrated into K48-linked polyUb in the cell, in other experiments the scarcest species in the cell; n = 2, mean ± SD
Settings: both partners purified

Kd: 3.5 µM
B1: MINDY3^EF-hand (domain or fragment, human, UniProt Q9H8M7 297-370, looked up)
chain: ALVAPEAPSEQARRVFQTYDPEDNGFIPDSLLEDVMKALDLVSDPEYINLMKNKLDPEGLGIILLGPFLQEFFP
notes: MINDY3, human, EF-hand domain, residues 297-370; The limits 297-370 are stated for the crystallised construct; also called EF-hand domain of MINDY3; MINDY3 (297–370); source: E. coli (Rosetta2(DE3) for crystallisation), purified via GST tag and SEC
